{"source": "paper PMC6430648", "data": [{"target": "IL-6 (UniProt P05231 30-212)", "sequence (P05231 30-212)": "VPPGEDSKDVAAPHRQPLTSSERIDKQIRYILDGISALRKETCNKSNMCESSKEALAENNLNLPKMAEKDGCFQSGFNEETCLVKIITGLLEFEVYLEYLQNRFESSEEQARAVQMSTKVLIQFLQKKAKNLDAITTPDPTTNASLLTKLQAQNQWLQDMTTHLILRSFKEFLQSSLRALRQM", "assay": "SPR", "units": {"binding signal": "%Rmax"}, "values": [{"binder": "IL-6 Unfunctionalized-2 (ssDNA) DNA: CTCGGATGAACCTGGACTTTACTGCGGCGCCAGCCGTGCCCATCCTTTCTTCATCCGTGCCCAGCATCGAAGCCAAGATTC", "binding signal": 3}, {"binder": "IL-6 Unfunctionalized-4 (ssDNA) DNA: CTCGGATGAACCTGGACTTAATGATGCTCATGGTGCTCTTCATCACCATCTTCGTTCCATCCTGCATCGAAGCCAAGATTC", "binding signal": 4}, {"binder": "IL-6 Unfunctionalized-5 (ssDNA) DNA: CTCGGATGAACCTGGACTTCTTCATTGCGCTGGTGCCTGCCATCCTTGTTCCATCCCCTTTGCGCATCGAAGCCAAGATTC", "binding signal": 4}, {"binder": "IL-6 Unfunctionalized-1 (ssDNA) DNA: CTCGGATGAACCTGGACTTTATTGCACTGGCTGTACTTTTCGTATCCATGGTCATCTTTTCTAGCATCGAAGCCAAGATTC", "binding signal": 4}, {"binder": "IL-6 Unfunctionalized-3 (ssDNA) DNA: CTCGGATGAACCTGGACTCTGTTTTTACTACCGCGCTAGCCGCCTCATCCGTTTTAGCGCCATGCATCGAAGCCAAGATTC", "binding signal": 3}]}, {"target": "PCSK9 (UniProt Q8NBP7 153-692)", "sequence (Q8NBP7 153-692)": "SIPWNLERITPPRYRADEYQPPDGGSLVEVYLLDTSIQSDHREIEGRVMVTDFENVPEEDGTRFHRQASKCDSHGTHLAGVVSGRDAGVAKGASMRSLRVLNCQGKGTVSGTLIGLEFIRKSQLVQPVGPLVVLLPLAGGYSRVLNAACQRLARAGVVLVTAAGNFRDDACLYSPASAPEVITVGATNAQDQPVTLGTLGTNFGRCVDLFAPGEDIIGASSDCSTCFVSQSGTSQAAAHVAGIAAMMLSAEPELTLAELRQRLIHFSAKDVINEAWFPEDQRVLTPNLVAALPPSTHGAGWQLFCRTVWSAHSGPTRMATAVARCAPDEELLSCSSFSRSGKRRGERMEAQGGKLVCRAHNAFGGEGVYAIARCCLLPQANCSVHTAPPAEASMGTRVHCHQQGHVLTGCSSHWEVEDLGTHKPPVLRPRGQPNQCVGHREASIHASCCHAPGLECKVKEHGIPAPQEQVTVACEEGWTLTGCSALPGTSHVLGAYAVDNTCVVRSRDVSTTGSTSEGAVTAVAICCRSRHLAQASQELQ", "assay": "SPR", "units": {"binding signal": "%Rmax"}, "values": [{"binder": "PCSK9 Charged-2 (ssDNA, none (no functionalized codon)) DNA: CGAATCAGATTGGACCAGTTTCATCCCTTTTTGCCACCCCTTTGTTGTCCACCCCCATGTCCTGAGTCCAGATGTAGGTAG", "binding signal": 11}, {"binder": "PCSK9 Unfunctionalized-3 (ssDNA) DNA: CGAATCAGATTGGACCAGCACCCTCCGTCTCCGCTCCCCTCGTCTTGTTGTTTCCCTTTCCCTGAGTCCAGATGTAGGTAG", "binding signal": 34}, {"binder": "PCSK9 Unfunctionalized-1 (ssDNA) DNA: CGAATCAGATTGGACCAGTTACCGCCCTCTCCCTTTTGTCCCCTCCGTTGTTTCTCTTTCCCTGAGTCCAGATGTAGGTAG", "binding signal": 30}]}]}
